This is an account of results in patent US6635450 (FRED HUTCHINSON CANCER RESEARCH CENTER, dated 2003).

The assay addresses Cdk2 alone (baculoviral HA-tagged Cdk2 immunoadsorbed to sepharose beads) (UniProt P24941 1-298). Kind of assay: depletion of the Cdk2 inhibitor from Mv1Lu cell extracts on Cdk2 sepharose beads, read by cyclin E-associated H1 kinase activity. The method, then:
Cyclin E-Cdk2 sepharose was prepared by mixing 1.2 µl of Sf9 cell lysate containing Hemagglutinin tagged Cdk2 (Cdk2 -HA) with 12 µl lysate containing cyclin E in buffer A (30 mM HEPES-KCH pH 7.5, 7.5 mM MgCl_2, 1 mM DTT) containing 10 mM ATP and incubated at room temperature for 30 minutes to allow complete formation. The assembly reaction was then adjusted to 250 mM NaCl and 0.5% NP40. The Cdk2-HA containing complexes were immunoprecipitated with the 12CA5 monoclonal antibody (BABCO) and collected on protein A-sepharose. Cdk2 sepharose was prepared in an identical manner except cyclin E was omitted. Immunoprecipitates were washed twice with NP40 RIPA buffer ([…], 250 mM NaCl, 10 mM EDTA, 20 mM Tris-HCl pH 7.4) and four times with buffer A. The matrix was divided into 4 aliquots and incubated with 100 µg of cell extract in buffer A containing 3 mM ATP, 20 µg/ml creatine phosphokinase, 40 mM phospho-creatine for 45 minutes at 37° C. After incubation the supernatant was collected and assayed for Cdk2 activation by addition of recombinant cyclin E as described below. A critical parameter in the execution of this experiment is to ensure that no cyclin, Cdk or complex leaks from the beads into the cell extract. This is unpredictable and must be checked by immunoblotting each time the experiment is performed.

B1: p27 protein, the 27 kD cyclin E-Cdk2 binding protein of Mv1Lu mink epithelial cells (endogenous) (other)
chain: MSNVRVSNGSPSLERMDARQAEYPKPSACRNLFGPVNHEELTRDLEKHRRDMEEASQRKWNFDFQNHKPLEGKYEWQEVEKGSLPEFYYRPPRPPKGACKVPAQESQDVSGTRQAVPLMGSQANSEDTHLVDQKTDTADNQAGLAEQCTGIRKRPATDDSSPQNKRANRTEENVSDGS
notes: also called p27^Kip1; Kip1
As for B1, the binding result is listed as “no binding”.
